According to patent publication US20260274910A1, “SINGLE FUSION PROTEIN AND PHARMACEUTICAL COMPOSITION” (MEDI&GENE INC., priority 2023, published 2026):

Experiments:
[1] = test system: MDA-MB-231 triple-negative breast cancer cell line; assay: MTT cell viability in breast cancer cells; format: cell-based; settings: 1 μM, 48 hours; compared with Control (PBS), SEQ ID NO: 4 and SEQ ID NO: 5
Procedure: Next, the test substances, the fusion proteins (SEQ ID NO: 1, 2, 3, 7, 14, 15) and shortened sequences (SEQ ID NOs: 9, 10, 11, 12) were treated to MDA-MB-231 triple-negative breast cancer cell line at a concentration of 1 μM (Control: PBS) for 48 hours. Thereafter, the cells were washed with PBS once, and the cells were suspended in serum-free buffer. The MTT (3-[4,5-dimethylthiazol-2-yl]-2,5-diphenyltetrazolium bromide) substance was added thereto at 0.5 mg/ml and incubated at 37° C. for 2 hours. Then, they were washed with PBS once, and the cells were lysed with DMSO for 15 minutes. The solution was transferred to a new plate and the absorbance was measured at 590 nm using a microplate reader.

cAMP (cyclic AMP) = assay: cAMP level (hTRF) in undifferentiated 3T3-L1 cells; format: cell-based, mouse; settings: undifferentiated 3T3-L1, 100 nM with 0.5 mM IBMX, 30 minutes; compared with Control and SEQ ID NO: 5
Procedure: To observe the functionality of the fusion proteins related to lipid metabolism, the 3T3-L1 mouse pre-adipocyte cell line was used as the cell line itself (undifferentiated) or by differentiating into adipocytes. Differentiation into the adipocytes was performed by inducing primary differentiation for the 3T3-L1 cells in a medium containing DMEM, 10% FBS, 10 μg/ml insulin, 0.5 mM IBMX (3-Isobutyl-1-methylxanthine), and 1 μM dexamethasone for 2 days, and inducing secondary differentiation with a medium containing DMEM, 10% FBS, and 10 μg/ml insulin for the remaining 4 days. The adipocytes in which differentiation was finally completed were treated with the test substances at a concentration of 100 nM for 30 hours (Control: PBS) and then used for each test.
Next, changes in cAMP (cyclic AMP), a signaling mediator contributing to lipolysis and energy metabolism were evaluated in the undifferentiated adipocytes. The undifferentiated cells were treated with the test substances at a concentration of 100 nM (Control: PBS) with 0.5 mM IBMX for 30 minutes. Thereafter, the level of cAMP was evaluated by the hTRF (Homogeneous Time Resolved Fluorescence) method (using CAMP Gs dynamic kit from Cisbio). As a result of the measurement, it was confirmed that the level of cAMP was higher in the groups treated with the fusion proteins (SEQ ID NOs: 1, 2, 3, 7, 13, 14, 15) and shortened sequences (sequences 9, 10, 11) compared with the Control and His tag-wild-type substance (1-81) (SEQ ID NO: 5) (FIG. 7).

[2] = test system: SH-SY5Y dopaminergic neuron cell line; assay: Reactive oxygen in neuron cells under rotenone; format: cell-based; settings: 1 µM rotenone + 100 nM test substance, 24 hours; compared with rotenone alone
Procedure: (§1) The SH-SY5Y dopaminergic neuron cell line was treated with 1 µM of a toxic substance, rotenone and 100 nM of each test substance simultaneously. After 24 hours, the MTT cell viability or the effect of reducing reactive oxygen was observed.

[3] = test system: SH-SY5Y dopaminergic neuron cell line; assay: MTT cell viability of neuron cells under rotenone; format: cell-based; settings: 1 µM rotenone + 100 nM test substance, 24 hours; compared with rotenone alone
Procedure: as §1

MDA-MB-231 cell line = assay: Reactive oxygen generation (DCF-FA) in breast cancer cells; format: cell-based; settings: 1 μM, 24 hours; compared with Control and SEQ ID NO: 5
Procedure: In addition, in order to examine generation of reactive oxygen that plays an important role in cancer cell death, each test substance was treated to the MDA-MB-231 cell line at a concentration of 1 μM (Control: PBS) for 24 hours. Then, the cells were stained with DCF-FA and their fluorescence values were observed and compared at 485/535 nm.

ATP5B protein = ATP5B protein (Homo sapiens, UniProt P06576); assay: SPR binding ability test; settings: ATP5B on CM5 chip, flow rate 50 μl/min, relative to control shortened sequence (SEQ ID NO: 12)
ATP5B protein, sequence (P06576 48-529, species assumed): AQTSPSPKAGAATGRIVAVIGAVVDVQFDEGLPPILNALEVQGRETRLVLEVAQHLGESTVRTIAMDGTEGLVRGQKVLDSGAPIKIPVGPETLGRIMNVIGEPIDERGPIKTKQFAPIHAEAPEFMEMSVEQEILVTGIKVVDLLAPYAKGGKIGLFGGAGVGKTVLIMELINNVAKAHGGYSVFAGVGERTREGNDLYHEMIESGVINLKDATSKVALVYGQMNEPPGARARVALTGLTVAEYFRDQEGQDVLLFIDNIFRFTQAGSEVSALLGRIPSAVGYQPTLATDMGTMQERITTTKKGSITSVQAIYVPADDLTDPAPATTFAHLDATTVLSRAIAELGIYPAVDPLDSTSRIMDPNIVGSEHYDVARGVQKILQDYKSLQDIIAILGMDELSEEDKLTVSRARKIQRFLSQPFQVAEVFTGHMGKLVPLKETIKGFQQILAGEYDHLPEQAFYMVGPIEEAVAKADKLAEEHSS
Procedure: In order to evaluate substitutable residues within a sequence, an SPR (surface plasma resonance) test was conducted. Specifically, the ATP5B protein was conjugated to a CM5 chip by amine-conjugation, and then the contact of each test substance was observed under the condition of a flow rate of 50 μl/min, and the refractive index was measured. Thereafter, by converting each binding unit, the binding ability was compared and evaluated. […] A decrease of 10% or more in binding ability was considered to indicate a negative effect of the substitution.

Row | Substance | Binding (%) (ATP5B protein) | also measured
1 | SEQ ID NO: 9: Synthetic peptide: Shortened substance (1-60) (GSDQSENVDRGAGSIREAGGAFGKREQAEEERYFRAQSREQLAALKKHHEEEIVHHKKEI; listed as Homo sapiens) | – | Cell viability (MTT) [1]: significantly low; Level of cAMP (cAMP (cyclic AMP)): higher; Generation of reactive oxygen [2]: significantly inhibited; Cell viability (MTT) [3]: significantly increased; Reactive oxygen generation (MDA-MB-231 cell line): generated higher
2 | SEQ ID NO: 10: Synthetic peptide: Shortened substance (1-47) GSDQSENVDRGAGSIREAGGAFGKREQAEEERYFRAQSREQLAALKK (listed as Homo sapiens) | – | Cell viability (MTT) [1]: significantly low; Level of cAMP (cAMP (cyclic AMP)): higher; Generation of reactive oxygen [2]: significantly inhibited; Cell viability (MTT) [3]: significantly increased; Reactive oxygen generation (MDA-MB-231 cell line): generated higher
3 | SEQ ID NO: 11: Synthetic peptide: Shortened amino acid modified substance (10-49; H49K mutation introduced) RGAGSIREAGGAFGKREQAEEERYFRAQSREQLAALKKHK | – | Cell viability (MTT) [1]: significantly low; Level of cAMP (cAMP (cyclic AMP)): higher; Generation of reactive oxygen [2]: significantly inhibited; Cell viability (MTT) [3]: significantly increased; Reactive oxygen generation (MDA-MB-231 cell line): generated higher
4 | SEQ ID NO: 12: Synthetic peptide: Shortened substance (8-35) VDRGAGSIREAGGAFGKREQAEEERYFR (listed as Homo sapiens) | 100.0% | Cell viability (MTT) [1]: significantly low
5 | SEQ ID NO: 16: Shortened substance (8-35) amino acid Ala substituted (8) ADRGAGSIREAGGAFGKREQAEEERYFR | 101.4% | –
6 | SEQ ID NO: 17: Shortened substance (8-35) amino acid Ala substituted (9) VARGAGSIREAGGAFGKREQAEEERYFR | 91.6% | –
7 | SEQ ID NO: 18: Shortened substance (8-35) amino acid Ala substituted (10) VDAGAGSIREAGGAFGKREQAEEERYFR | 104.2% | –
8 | SEQ ID NO: 19: Shortened substance (8-35) amino acid Ala substituted (11) VDRAAGSIREAGGAFGKREQAEEERYFR | 100.0% | –
9 | SEQ ID NO: 20: Shortened substance (8-35) amino acid Ala substituted (13) VDRGAASIREAGGAFGKREQAEEERYFR | 98.5% | –
10 | SEQ ID NO: 21: Shortened substance (8-35) amino acid Ala substituted (14) VDRGAGAIREAGGAFGKREQAEEERYFR | 98.8% | –
11 | SEQ ID NO: 22: Shortened substance (8-35) amino acid Ala substituted (15) VDRGAGSAREAGGAFGKREQAEEERYFR | 99.3% | –
12 | SEQ ID NO: 23: Shortened substance (8-35) amino acid Ala substituted (16) VDRGAGSIAEAGGAFGKREQAEEERYFR | 97.0% | –
13 | SEQ ID NO: 24: Shortened substance (8-35) amino acid Ala substituted (17) VDRGAGSIRAAGGAFGKREQAEEERYFR | 168.7% | –
14 | SEQ ID NO: 25: Shortened substance (8-35) amino acid Ala substituted (19) VDRGAGSIREAAGAFGKREQAEEERYFR | 89.6% | –
15 | SEQ ID NO: 26: Shortened substance (8-35) amino acid Ala substituted (20) VDRGAGSIREAGAAFGKREQAEEERYFR | 68.0% | –
16 | SEQ ID NO: 27: Shortened substance (8-35) amino acid Ala substituted (22) VDRGAGSIREAGGAAGKREQAEEERYFR | 94.0% | –
17 | SEQ ID NO: 28: Shortened substance (8-35) amino acid Ala substituted (23) VDRGAGSIREAGGAFAKREQAEEERYFR | 102.3% | –
18 | SEQ ID NO: 29: Shortened substance (8-35) amino acid Ala substituted (24) VDRGAGSIREAGGAFGAREQAEEERYFR | 100.5% | –
19 | SEQ ID NO: 30: Shortened substance (8-35) amino acid Ala substituted (25) VDRGAGSIREAGGAFGKAEQAEEERYFR | 85.2% | –
20 | SEQ ID NO: 31: Shortened substance (8-35) amino acid Ala substituted (26) VDRGAGSIREAGGAFGKRAQAEEERYFR | 94.1% | –
21 | SEQ ID NO: 32: Shortened substance (8-35) amino acid Ala substituted (27) VDRGAGSIREAGGAFGKREAAEEERYFR | 89.5% | –
22 | SEQ ID NO: 33: Shortened substance (8-35) amino acid Ala substituted (29) VDRGAGSIREAGGAFGKREQAAEERYFR | 96.7% | –
23 | SEQ ID NO: 34: Shortened substance (8-35) amino acid Ala substituted (30) VDRGAGSIREAGGAFGKREQAEAERYFR | 94.0% | –
24 | SEQ ID NO: 35: Shortened substance (8-35) amino acid Ala substituted (31) VDRGAGSIREAGGAFGKREQAEEARYFR | 157.9% | –
25 | SEQ ID NO: 36: Shortened substance (8-35) amino acid Ala substituted (32) VDRGAGSIREAGGAFGKREQAEEEAYFR | 426.0% | –
26 | SEQ ID NO: 37: Shortened substance (8-35) amino acid Ala substituted (33) VDRGAGSIREAGGAFGKREQAEEERAFR | 145.8% | –
27 | SEQ ID NO: 38: Shortened substance (8-35) amino acid Ala substituted (34) VDRGAGSIREAGGAFGKREQAEEERYAR | 92.1% | –
28 | SEQ ID NO: 39: Shortened substance (8-35) amino acid Ala substituted (35) VDRGAGSIREAGGAFGKREQAEEERYFA | 109.6% | –
